PMC10837151, “Asymmetric nucleosome PARylation at DNA breaks mediates directional nucleosome sliding by ALC1” (Nature Communications, 2024)

Target: T1, histone H4 (Xenopus laevis) (Xenopus laevis, UniProt P62799 1-103)
T1 construct: histone H4, Xenopus laevis, recombinant; In the cryo-EM structure H4 stood within the nucleosome m2; source: bought: Histone Source Protein Expression and Purification Facility, Colorado State University (purified recombinant)
Experiment: cryo-EM structure; modified nucleosomes at 1 µM, ALC1 at 6 µM, ADP-BeF3 at 1 mM, incubated 60 minutes on ice before vitrification
Conditions: both partners purified

binding result: binds
B1: ALC1 (Amplified in Liver Cancer 1), wild-type construct (16-879) (enzyme)
chain: FLLRLHTEGRAEAARVQEQDLRQWGLTGIHLRSYQLEGVNWLAQRFHCQNGCILGDEMGLGKTCQTIALFIYLAGRLNDEGPFLILCPLSVLSNWKEEMQRFAPGLSCVTYAGDKEERACLQQDLKQESRFHVLLTTYEICLKDASFLKSFPWSVLVVDEAHRLKNQSSLLHKTLSEFSVVFSLLLTGTPIQNSLQELYSLLSFVEPDLFSKEEVGDFIQRYQDIEKESESASELHKLLQPFLLRRVKAEVATELPKKTEVVIYHGMSALQKKYYKAILMKDLDAFENETAKKVKLQNILSQLRKCVDHPYLFDGVEPEPFEVGDHLTEASGKLHLLDKLLAFLYSGGHRVLLFSQMTQMLDILQDYMDYRGYSYERVDGSVRGEERHLAIKNFGQQPIFVFLLSTRAGGVGMNLTAADTVIFVDSDFNPQNDLQAAARAHRIGQNKSVKVIRLIGRDTVEEIVYRKAASKLQLTNMIIEGGHFTLGAQKPAADADLQLSEILKFGLDKLLASEGSTMDEIDLESILGETKDGQWVSDALPAAEGGSRDQEEGKNHMYLFEGKDYSKEPSKEDRKSFEQLVNLQKTLLEKASQEGRSLRNKGSVLIPGLVEGSTKRKRVLSPEELEDRQKKRQEAAAKRRRLIEEKKRQKEEAEHKKKMAWWESNNYQSFCLPSEESEPEDLENGEESSAELDYQDPDATSLKYVSGDVTHPQAGAEDALIVHCVDDSGHWGRGGLFTALEKRSAEPRKIYELAGKMKDLSLGGVLLFPVDDKESRNKGQDLLALIVAQHRDRSNVLSGIKMAALEEGLKKIFLAAKKKKASVHLPRIGHATKGFNWYGTERLIRKHLAARGIPTYIYYFPRSK
notes: human ALC1/CHD1L, residues 16-879; The cryo-EM methods call the protein ALC1^fl, while the only construct described is 16-879; also called CHD1L; ALC1/CHD1L; source: E. coli Rosetta 2 (DE3), purified (HisTrap, Q/SP ion exchange, Superdex 200)
